Measurements reported in PMC7888556 (Biochemical and biophysical research communications, 2017).

Biological target: T1, CEP192-WT (residues 507-1065 of human CEP192, C-terminal V5 and 6XHis tags) (human, UniProt Q8TEP8 507-1065)
T1 sequence (looked up): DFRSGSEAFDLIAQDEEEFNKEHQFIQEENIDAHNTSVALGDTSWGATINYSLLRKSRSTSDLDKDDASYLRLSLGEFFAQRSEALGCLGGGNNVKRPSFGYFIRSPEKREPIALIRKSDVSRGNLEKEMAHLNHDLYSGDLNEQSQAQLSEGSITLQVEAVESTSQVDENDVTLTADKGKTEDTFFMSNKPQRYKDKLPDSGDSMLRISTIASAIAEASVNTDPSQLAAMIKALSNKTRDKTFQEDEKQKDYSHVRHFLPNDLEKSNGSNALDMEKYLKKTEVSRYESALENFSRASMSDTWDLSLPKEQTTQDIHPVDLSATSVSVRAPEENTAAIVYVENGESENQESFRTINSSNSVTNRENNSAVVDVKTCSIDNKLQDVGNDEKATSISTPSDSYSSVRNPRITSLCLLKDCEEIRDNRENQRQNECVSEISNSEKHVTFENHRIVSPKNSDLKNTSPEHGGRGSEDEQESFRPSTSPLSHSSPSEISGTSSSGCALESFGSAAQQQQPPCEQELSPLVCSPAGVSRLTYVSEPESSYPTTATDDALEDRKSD
Experiment: pull-down

B1: Human PP1β (type one protein phosphatase, purified) (enzyme, UniProt P62140 1-327, looked up)
chain: MADGELNVDSLITRLLEVRGCRPGKIVQMTEAEVRGLCIKSREIFLSQPILLELEAPLKICGDIHGQYTDLLRLFEYGGFPPEANYLFLGDYVDRGKQSLETICLLLAYKIKYPENFFLLRGNHECASINRIYGFYDECKRRFNIKLWKTFTDCFNCLPIAAIVDEKIFCCHGGLSPDLQSMEQIRRIMRPTDVPDTGLLCDLLWSDPDKDVQGWGENDRGVSFTFGADVVSKFLNRHDLDLICRAHQVVEDGYEFFAKRQLVTLFSAPNYCGEFDNAGGMMSVDETLMCSFQILKPSEKKAKYQYGGLNSGRPVTPPRTANPPKKR
binding result: binds
